Source: patent US20210147564A1 (published 2021)

T1: human BCMA ECD protein (Abcam ab50089) (human, UniProt Q02223 1-54)
T1 chain: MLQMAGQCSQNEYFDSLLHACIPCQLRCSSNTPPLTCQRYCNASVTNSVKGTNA

B1: heavy chain-only anti-BCMA antibody (UniAb) with the heavy chain variable region of SEQ ID NO: 15 (antibody, V domains shown)
VH: EVQLLESGGGLVQPGGSLRLSCAASGFTFSSYAMSWVRQAPGKGLEWVSSISGSGDYIYYADSVKGRFTISRDISKNTLYLQMNSLRAEDTAVYYCAKEGTGANSSLADYRGQGTLVTVSS
B2: heavy chain-only anti-BCMA antibody (UniAb) with the heavy chain variable region of SEQ ID NO: 12 (antibody, V domains shown)
VH: QVQLVESGGGLVQPGGSLRLSCAASGFTFTNHAMSWVRQAPGKGLELVSSISGNGRTTYYADSVKGRFTISRDISKNTLDLQMNSLRAEDTAVYYCAKDGGETLVDSRGQGTLVTVSS
B3: heavy chain-only anti-BCMA antibody (UniAb) with the heavy chain variable region of SEQ ID NO: 13 (antibody, V domains shown)
VH: QVQLVESGGGLVQPGGSLRLSCAASGFTFSSHAMTWVRQAPGKGLEWVAAISGSGDFTHYADSVKGRFTISRDNSKNTVSLQMNNLRAEDTAVYYCAKDEDGGSLLGYRGQGTLVTVSS

biological target: BCMA protein of Cynomolgus macaque (Cynomolgus macaque, UniProt A0A2K5UD97 1-53); assay: Octet off-rate
Sequence (A0A2K5UD97 entry or part of it): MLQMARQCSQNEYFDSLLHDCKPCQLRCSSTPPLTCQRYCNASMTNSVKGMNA

| Binder | koff [s⁻¹] |
| --- | --- |
| B1 | 0.000322 |
| B2 | 0.000941 |
| B3 | 0.00189 |

Biological target: T1, human BCMA ECD protein (Abcam ab50089)
Assay: Octet off-rate

| Binder | koff [s⁻¹] |
| --- | --- |
| B1 | < 1e-07 |
| B2 | < 1e-07 |
| B3 | < 1e-07 |
